Source: US20060073572A1, “Cytokine structurally related to IL-17” (The Johns Hopkins University, priority 2001, published 2006)
“Also recorded” adds a separate entry of the source.

What was measured:
Format in all cases: cell-based, human
[1] = system: IL-6; assay: IL-6 expression in HUVECs (ELISA, RT-PCR); conditions: ML-1 10 and 100 ng/ml, 24 and 48 hours, ELISA
Description: (§1) FIG. 5. Analysis of IL-6 (FIG. 5A) and IL-8 (FIG. 5B) expression in primary bronchial epithelial cells (PBECs) and human umbilical vein endothelial cells (HUVECs) stimulated by ML-1. The IL-6 and IL-8 protein release in the supernatant was determined by ELISA as described in Example 8. The results were expressed as mean+SD (n=6). *p<0.05 was considered significant vs control.
(§2) FIG. 7A-7D. Effect of PD98059 on IL-6 (FIG. 7A) and IL-8 (FIG. 7B) protein production in PBECs and HUVECs. The cells were preincubated with varying concentrations of PD98059, SB202190, or DMSO vehicle control for 1 hour, followed by stimulation with ML-1 (100 ng/ml) for 24 hours. The results are expressed as the mean+SD (n=6). *P<0.05 when compared to cultures without the addition of PD98059. FIGS. 7C and 7D. Semi-quantitative analysis of gene expression for IL-6 (FIG. 7C) and IL-8 (FIG. 7D) by RT-PCR. The cells were preincubated as described above and treated with ML-1 for 4 hours. RT-PCR was performed as described in Example 8. The results shown are representative of three separate experiments.
(§3) Human umbilical vein endothelial cells (HUVECs) were obtained from Clonetics and cultured in endothelial cell growth media (EGM; Clonetics) containing 12 μg/ml bovine brain extract, 10 ng/ml EGF, 1 μg/ml hydrocortisone, 50 μg/ml gentimicin, 50 ng/ml amphotericin B, and 5% FBS amphotericin-B (Clonetics).
(§4) PBECs and HUVECs were treated with ML-1 100 ng/ml of ML-1 for various time points. Total RNA was extracted using RNeasy (Qiagen) from 1×10^6 cells 4 hours after stimulation or exchange of media. […]
(§5) The amplification reaction was performed for 23 cycles with denaturation at 94° C. for 45 seconds, annealing at 56° C. for 45 seconds, and extension at 72° C. for 45 seconds. PCR products were detected by ethidium bromide staining and normalized by the intensity of an amplified housekeeping gene, G3PDH (see above). […] IL-6 and IL-8 protein levels in the collected supernatants were determined with a commercially available ELISA kit (Biosource, Camarillo, Calif.) according to the manufacturer's instructions.

[2] = system: IL-8; assay: IL-8 expression in HUVECs (ELISA, RT-PCR); conditions: ML-1 10 and 100 ng/ml, 24 and 48 hours, ELISA
Description: as §1, §2, §3, §4, §5

[3] = system: IL-6; assay: IL-6 expression in PBECs (ELISA, RT-PCR); conditions: ML-1 10 and 100 ng/ml, 24 and 48 hours, ELISA
Description: as §1, §2
Primary bronchial epithelial cells (PBECs) were purchased from Clonetics (San Diego, Calif.) and cultured in bronchial epithelial basal medium (Clonetics) containing 0.5 ng/ml human recombinant epidermal growth factor (EGF), 52 mg/ml bovine pituitary extract, 0.1 mg/ml retinoic acid, 0.5 mg/ml hydrocortisone, 5 mg/ml insulin, 10 mg/ml transferrin, 0.5 mg/ml epinephrine, 6.5 ng/ml triiodothyronine, […] gentamicin, and 50 pg/ml amphotericin-B (Clonetics). […]
as §5

[4] = system: IL-8; assay: IL-8 expression in NHBE cells (RT-PCR and ELISA); conditions: 100 ng/ml
Description: FIGS. 3A-3C. FIG. 3A, Expression of ML-1 protein in COS-7 cells. COS-7 cells were transfected with a gene construct containing full-length ML-1 sequence and a tag sequence encoding poly (His) peptide. ML-1-His fusion proteins were purified from supernatants of the transfected cells using a His affinity column, run on an 8-16% SDS-polyacrylamide gel under reducing conditions, and analyzed by Western Blot using anti-His monoclonal antibody. Lane 1 represents a mock-transfected sample. Lane 2 represents an ML-1-transfected sample. The location of a 19.5 kd marker is indicated. FIG. 3B, Effect of ML-1 on IL-8 gene expression. Human primary bronchial epithelial cells (NHBE cells) were treated with different stimuli. The cells were harvested 4 hours after stimulation, and total RNA was extracted and subjected to RT-PCR using IL-8 and G3PDH primers. Lane 1, medium only; lane 2, cells treated with rIL-17 (100 ng/ml); lane 3, cells treated with purified His-tagged protein (Positope, 100 ng/ml); lane 4, cells treated with ML-1 (100 ng/ml). FIG. 3C, Effect of ML-1 on IL-8 protein production. NHBE cells were treated with the same stimuli used in FIG. 3B, and the supernatants were harvested 48 hours after stimulation.
Primary human bronchial epithelial (NHBE) cells were purchased from Clonetics (San Diego, Calif.) and cultured according to the manufacturer's instructions. The cells were treated with IL-17 (100 ng/ml), ML-1 (100 ng/ml), or a control His-tagged protein (Positope, 100 ng/ml; Invitrogen, Carlsbad, Calif.). The affinity-purified control His protein was dissolved in the same buffer as ML-1. Total RNA was extracted using Rneasy (Qiagen, Chatsworth, Calif.) from 1×10^6 cells 4 hours after stimulation or exchange of media. The protocol for cDNA synthesis was that described above. For PCR, the sequences of PCR primers were based on the human IL-8 cDNA sequence. The sequences of PCR primers for IL-8 were: forward, 5′-TCTGCAGCTCTGTGTGAAG-3′ (SEQ ID NO:14) and reverse, 5′-TAATTTCTGTGTTGGCGCA-3′ (SEQ ID NO:15). The amplification reaction was performed for 23 cycles with denaturation at 94° C. for 45 seconds, annealing at 56° C. for 45 seconds, and extension at 72° C. for 45 seconds PCR products were detected by ethidium bromide staining. The expected size for IL-8 was 154 basepairs. IL-8 protein levels in the collected supernatants were determined with a commercially available ELISA kit (Biosource, Camarillo, Calif.) according to the manufacturer's instructions.

B1: ML-1: new member of the IL-17 cytokine family, SEQ ID NO:2; His-tagged recombinant protein expressed in COS-7 cells and affinity purified (protein, listed as Homo sapiens)
chain: MKLDIGIINENQRVSMSRNIESRSTSPWNYTVTWDPNRYPSEVVQAQCRNLGCINAQGKEDISMNSVPIQQETLVVRRKHQGCSVSFQLEKVLVTVGCTCVTPVIHHVQ
modifications: His tag
IL-6 production [1]: time-dependent increase; also recorded: significantly induced | IL-8 production [2]: time-dependent increase; also recorded: significantly induced | IL-6 production [3]: time-dependent increase; also recorded: significantly induced | IL-8 protein expression ([4]; ELISA of supernatants, 48 hours): enhanced | IL-8 transcript expression ([4]; RT-PCR): enhanced
